The test system of this data set is Escherichia coli TOP10. As to the kind of experiment: shrunken log2 fold change of peptide-encoding DNA abundance (4.5 h post-induction vs induction); higher = less antimicrobial activity (less host growth inhibition). The following applies: time post-induction: 4.5 h; library: site-saturation at positions 5, 18, 19, 20.
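Note: peptides expressed intracellularly from a pBAD plasmid library in pooled LB shake-flask culture, induced with 0.3% L-arabinose, DNA abundance read by NGS, three biological replicates, DESeq2 with apeglm shrinkage.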

For RRIRTRPPRLPRPRPRPTQNPRP, the “shrunken log2 fold change” value was 0.385. As to RRIRLRPPRLPRPRPRPQTEPRP, the “shrunken log2 fold change” value was -0.0579. As to RRIRFRPPRLPRPRPRPLSAPRP, the “shrunken log2 fold change” value was -0.039. On to RRIRTRPPRLPRPRPRPMACPRP, for which the “shrunken log2 fold change” value was determined as 0.0855. To RRIRWRPPRLPRPRPRPEVFPRP belongs 1.35; to RRIRLRPPRLPRPRPRPLIMPRP, -0.435; to RRIRRRPPRLPRPRPRPWTVPRP, -0.00497. As for RRIRGRPPRLPRPRPRPGAKPRP, the “shrunken log2 fold change” value was determined as 0.924. To RRIRNRPPRLPRPRPRPRFAPRP belongs 0.164. Turning to RRIRSRPPRLPRPRPRPAERPRP, the “shrunken log2 fold change” value amounted to 0.0522.

In the case of RRIRVRPPRLPRPRPRPEHKPRP, the “shrunken log2 fold change” value was -0.0815. In the case of RRIRSRPPRLPRPRPRPIPPPRP, the “shrunken log2 fold change” value is -0.0431. For the sequence RRIRERPPRLPRPRPRPWNHPRP, the “shrunken log2 fold change” value is -1.48. To RRIRDRPPRLPRPRPRPCYCPRP belongs -0.148. As for RRIRWRPPRLPRPRPRPDMWPRP, the “shrunken log2 fold change” value is 0.228. RRIRGRPPRLPRPRPRPGTEPRP: the “shrunken log2 fold change” value is 0.731. Regarding RRIRYRPPRLPRPRPRPFNSPRP, the “shrunken log2 fold change” value is -0.169.

Turning to RRIRIRPPRLPRPRPRPTPHPRP, the “shrunken log2 fold change” value came to 0.788. For RRIRCRPPRLPRPRPRPHHSPRP, the “shrunken log2 fold change” value was -0.201.

For the sequence RRIRARPPRLPRPRPRPNWTPRP, the “shrunken log2 fold change” value amounted to 0.0524. Consider RRIRQRPPRLPRPRPRPDRFPRP, for which the “shrunken log2 fold change” value worked out at 0.0204.

RRIRARPPRLPRPRPRPKHAPRP: the “shrunken log2 fold change” value worked out at 0.757.

For the sequence RRIRHRPPRLPRPRPRPYLDPRP, the “shrunken log2 fold change” value amounted to 0.00552. In the case of RRIRQRPPRLPRPRPRPQYVPRP it was 0.0318; in that of RRIRVRPPRLPRPRPRPFKTPRP, 0.146. For RRIRYRPPRLPRPRPRPVMMPRP, the “shrunken log2 fold change” value was -0.891. As for RRIRKRPPRLPRPRPRPSIWPRP, the “shrunken log2 fold change” value was -0.0618.

Consider RRIRNRPPRLPRPRPRPCTMPRP, for which the “shrunken log2 fold change” value is -0.199. Regarding RRIRARPPRLPRPRPRPEEMPRP, the “shrunken log2 fold change” value turned out to be 1.73. For RRIRHRPPRLPRPRPRPFEDPRP, the “shrunken log2 fold change” value came to 0.0112. As to RRIRPRPPRLPRPRPRPHRIPRP, the “shrunken log2 fold change” value is -0.414.

Regarding RRIRMRPPRLPRPRPRPVGSPRP, the “shrunken log2 fold change” value stood at 0.99. In the case of RRIRDRPPRLPRPRPRPMNSPRP it was -0.0173. As to RRIRFRPPRLPRPRPRPWHQPRP, the “shrunken log2 fold change” value was -0.338.

Consider RRIRSRPPRLPRPRPRPMAPPRP, for which the “shrunken log2 fold change” value amounted to 0.257.

Consider RRIRSRPPRLPRPRPRPGSIPRP, for which the “shrunken log2 fold change” value is -0.0732. RRIRNRPPRLPRPRPRPGQGPRP: the “shrunken log2 fold change” value is -0.0357. In the case of RRIRKRPPRLPRPRPRPWSNPRP it was 0.202; in that of RRIRFRPPRLPRPRPRPEFDPRP, -0.193; in that of RRIRCRPPRLPRPRPRPLVFPRP, -0.317. Regarding RRIRKRPPRLPRPRPRPRNTPRP, the “shrunken log2 fold change” value is -0.0381. On to RRIRHRPPRLPRPRPRPQGEPRP, for which the “shrunken log2 fold change” value was -0.171. With RRIRGRPPRLPRPRPRPFWVPRP, the “shrunken log2 fold change” value amounted to 0.15. RRIRIRPPRLPRPRPRPVFYPRP: the “shrunken log2 fold change” value is -0.333. Turning to RRIRERPPRLPRPRPRPYSVPRP, the “shrunken log2 fold change” value is -0.114. Regarding RRIRLRPPRLPRPRPRPTQMPRP, the “shrunken log2 fold change” value was 0.333.

In the case of RRIRERPPRLPRPRPRPHISPRP, the “shrunken log2 fold change” value was -0.3.

With RRIRGRPPRLPRPRPRPVSDPRP, the “shrunken log2 fold change” value is 1.26.

Turning to RRIRQRPPRLPRPRPRPICDPRP, the “shrunken log2 fold change” value is -0.0181. Consider RRIRCRPPRLPRPRPRPQGEPRP, for which the “shrunken log2 fold change” value was determined as 0.161. On to RRIRVRPPRLPRPRPRPKWTPRP, for which the “shrunken log2 fold change” value came out at 0.0514. As for RRIRWRPPRLPRPRPRPSTVPRP, the “shrunken log2 fold change” value was -0.362. In the case of RRIRHRPPRLPRPRPRPKKWPRP it was -0.0201; in that of RRIRHRPPRLPRPRPRPPCIPRP, 0.00475. In the case of RRIRMRPPRLPRPRPRPEFGPRP, the “shrunken log2 fold change” value worked out at 1.22. Take RRIRMRPPRLPRPRPRPIYPPRP: the “shrunken log2 fold change” value is -0.125.

As for RRIRIRPPRLPRPRPRPMATPRP, the “shrunken log2 fold change” value is -0.0167. For the sequence RRIRMRPPRLPRPRPRPNYYPRP, the “shrunken log2 fold change” value is -0.576. Regarding RRIRTRPPRLPRPRPRPRNMPRP, the “shrunken log2 fold change” value was -0.493. As to RRIRQRPPRLPRPRPRPSQYPRP, the “shrunken log2 fold change” value was -0.244. RRIRQRPPRLPRPRPRPYHEPRP: the “shrunken log2 fold change” value is -0.288.

With RRIRTRPPRLPRPRPRPQFQPRP, the “shrunken log2 fold change” value came to 0.183. To RRIRVRPPRLPRPRPRPVPFPRP belongs -0.115. As to RRIRQRPPRLPRPRPRPNSIPRP, the “shrunken log2 fold change” value is -0.21.

Consider RRIRFRPPRLPRPRPRPGNLPRP, for which the “shrunken log2 fold change” value was -0.13. RRIRHRPPRLPRPRPRPSHFPRP: the “shrunken log2 fold change” value is -0.0233. To RRIRERPPRLPRPRPRPPNVPRP belongs 0.149.

RRIRRRPPRLPRPRPRPNGMPRP: the “shrunken log2 fold change” value was -0.0764. For RRIRERPPRLPRPRPRPTLCPRP, the “shrunken log2 fold change” value was determined as 0.259. Consider RRIRKRPPRLPRPRPRPHMVPRP, for which the “shrunken log2 fold change” value is -0.33. To RRIRNRPPRLPRPRPRPSYMPRP belongs -1.71.

For the sequence RRIRQRPPRLPRPRPRPKFFPRP, the “shrunken log2 fold change” value is -0.0285. To RRIRGRPPRLPRPRPRPATMPRP belongs 0.44; to RRIRHRPPRLPRPRPRPAHYPRP, -0.139; to RRIRDRPPRLPRPRPRPMWPPRP, 0.316. On to RRIRLRPPRLPRPRPRPVYFPRP, for which the “shrunken log2 fold change” value was -0.455. Turning to RRIRIRPPRLPRPRPRPRQGPRP, the “shrunken log2 fold change” value came to 0.0734. Take RRIRIRPPRLPRPRPRPTGAPRP: the “shrunken log2 fold change” value was -0.0341. For the sequence RRIRGRPPRLPRPRPRPAAEPRP, the “shrunken log2 fold change” value turned out to be 2.52. Consider RRIRFRPPRLPRPRPRPDSQPRP, for which the “shrunken log2 fold change” value is -0.271. In the case of RRIRCRPPRLPRPRPRPIKKPRP it was -0.0497; in that of RRIRSRPPRLPRPRPRPQRHPRP, 0.141. Consider RRIRPRPPRLPRPRPRPEGVPRP, for which the “shrunken log2 fold change” value was 0.103. Regarding RRIRLRPPRLPRPRPRPCIMPRP, the “shrunken log2 fold change” value was -0.0711. RRIRIRPPRLPRPRPRPSMCPRP: the “shrunken log2 fold change” value is -1.33.

Take RRIRQRPPRLPRPRPRPVSWPRP: the “shrunken log2 fold change” value is 1.47.

Turning to RRIRERPPRLPRPRPRPVDIPRP, the “shrunken log2 fold change” value was -0.105. In the case of RRIRRRPPRLPRPRPRPNHHPRP it was -0.25. Regarding RRIRFRPPRLPRPRPRPDGTPRP, the “shrunken log2 fold change” value was -0.256. With RRIRHRPPRLPRPRPRPDPSPRP, the “shrunken log2 fold change” value was -0.00848. With RRIRSRPPRLPRPRPRPPFGPRP, the “shrunken log2 fold change” value was found to be 0.398. Take RRIRWRPPRLPRPRPRPYQYPRP: the “shrunken log2 fold change” value was -0.0756. In the case of RRIRRRPPRLPRPRPRPTVCPRP it was 0.227. In the case of RRIRFRPPRLPRPRPRPWGQPRP it was 0.0397; in that of RRIRCRPPRLPRPRPRPMCLPRP, -0.201. As for RRIRNRPPRLPRPRPRPQTAPRP, the “shrunken log2 fold change” value is -0.0947. Regarding RRIRLRPPRLPRPRPRPSYLPRP, the “shrunken log2 fold change” value is -0.659. RRIRDRPPRLPRPRPRPQCAPRP: the “shrunken log2 fold change” value was 0.0622. For RRIRARPPRLPRPRPRPLAYPRP, the “shrunken log2 fold change” value was found to be 0.293. As for RRIRCRPPRLPRPRPRPRGYPRP, the “shrunken log2 fold change” value was 0.471. To RRIRMRPPRLPRPRPRPPRPPRP belongs 1.75. For the sequence RRIRVRPPRLPRPRPRPATLPRP, the “shrunken log2 fold change” value is -0.00452. For the sequence RRIRNRPPRLPRPRPRPAIWPRP, the “shrunken log2 fold change” value stood at 0.13. Take RRIRARPPRLPRPRPRPCTPPRP: the “shrunken log2 fold change” value was -0.0509. Regarding RRIRARPPRLPRPRPRPYRFPRP, the “shrunken log2 fold change” value was 0.0859. RRIRFRPPRLPRPRPRPVSPPRP: the “shrunken log2 fold change” value is -0.172. In the case of RRIRCRPPRLPRPRPRPSVNPRP, the “shrunken log2 fold change” value was -0.348.

RRIRERPPRLPRPRPRPTLKPRP: the “shrunken log2 fold change” value was -0.197. As for RRIRRRPPRLPRPRPRPVAHPRP, the “shrunken log2 fold change” value stood at 0.605.

As for RRIRLRPPRLPRPRPRPGNSPRP, the “shrunken log2 fold change” value was -0.0133. For RRIRLRPPRLPRPRPRPQQNPRP, the “shrunken log2 fold change” value was -0.241. In the case of RRIRERPPRLPRPRPRPQIWPRP, the “shrunken log2 fold change” value came out at 0.0182. Turning to RRIRARPPRLPRPRPRPPYRPRP, the “shrunken log2 fold change” value is -0.0935. With RRIRFRPPRLPRPRPRPSDFPRP, the “shrunken log2 fold change” value was -0.487.

For RRIRKRPPRLPRPRPRPPCYPRP, the “shrunken log2 fold change” value turned out to be 0.202. To RRIRMRPPRLPRPRPRPSCFPRP belongs -0.145. For RRIRRRPPRLPRPRPRPMYEPRP, the “shrunken log2 fold change” value was -0.034.

Regarding RRIRMRPPRLPRPRPRPINPPRP, the “shrunken log2 fold change” value is -0.0782. As for RRIRERPPRLPRPRPRPTWFPRP, the “shrunken log2 fold change” value was 0.118. In the case of RRIRIRPPRLPRPRPRPIHYPRP it was -0.791; in that of RRIRVRPPRLPRPRPRPKDWPRP, 0.0589; in that of RRIRNRPPRLPRPRPRPTEWPRP, 0.0839. In the case of RRIRVRPPRLPRPRPRPANSPRP it was -0.117. Regarding RRIRIRPPRLPRPRPRPRASPRP, the “shrunken log2 fold change” value was -0.195. To RRIRERPPRLPRPRPRPLYTPRP belongs -0.41.

The values above are taken from the supplement of paper PMC9112550, “Optimization of the antimicrobial peptide Bac7 by deep mutational scanning” (BMC Biology, 2022).
